Laboratory results published in the supplement of paper PMC9170038.

Legend:
MS2 coat protein [1] = assay: apparent KD of MS2 coat protein, switch ON state; designed switch direction (-1 OFF switch, 1 ON switch): -1; higher = weaker reporter binding; settings: FMN input: 0 or 200 uM; Eterna round: R93 (includes R88 designs)
Procedure, shortened: (§1)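 Each design's apparent KD comes from the median of binding-curve fits to its normalised clusters. Those clusters carried RNA switches transcribed on-chip from Illumina sequencing clusters. SNAP-549-labelled MS2 coat protein was titrated onto them in twofold steps (0.7 or 1.5 nM to 3 µM; per step 0.8–1.5 h down to 10–20 min). Conditions were 100 mM Tris-HCl pH 7.5, 80 mM KCl, 4 mM MgCl2, without or with constant ligand.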

MS2 coat protein [2] = assay: apparent KD of MS2 coat protein, switch OFF state (with FMN for OFF switches, without FMN for ON switches); designed switch direction (-1 OFF switch, 1 ON switch): -1; higher = weaker reporter binding; settings: FMN input: 0 or 200 uM; Eterna round: R93 (includes R88 designs)
Procedure, shortened: as §1

| Sequence | apparent KD of MS2 coat protein (MS2 coat protein [1]) | apparent KD of MS2 coat protein (MS2 coat protein [2]) |
| --- | --- | --- |
| AAGAAGUGAGGAUAUACAUGAAAGAAAGAAAAGAAAAGAAAACAUGAGGAUCACCCAUGUAGAAGGCACAAGAA [EteRNA is fun!] | 28.7 nM | 27.6 nM |
| AAGAAGUGAGGAUAUCGAAGACAGACGAAAAGUCUGUCAAACGAGAAGGCACAUGAGGAUCACCCAUGUAAGAA [What have we learned so far?] | 34.8 nM | 43.7 nM |
| AAGAAGUGAGGAUAUCGAAGACAGACGAAAAGUCUGUCAAACGAGAAGGCACAUGAGGAUCACCCAUGUGGGAG [Mat - Exaclusion 4 - Eli mod - D74] | 114 nM | 277 nM |
| AAGAAGUGAGGAUAUCGAAGACUGUCGAAAAGACAGUCGAACGAGAAGGCACAUGAGGAUCACCCAUGUGAGAG [Mat - Exaclusion 4 - Eli mod - D66] | 31.9 nM | 46.2 nM |
| AAGAAGUGAGGAUAUGCUGACAAUAUGAAGACUUGAGGUAUGCAGAAGGCACAUGAGGAUCACCCAUGUAAGAA [JR_Exclusion4_Sub4] | 27.4 nM | 23.6 nM |
| AAGAAUGCAGGAUAUACAAGAAAGAAAGAAAAGAAAAGAAAACAUGAGGAUCACCCAUGUAGAAGGGCAUAGAA [EteRNA is fun!] | 32.6 nM | 25 nM |
| AAGAAUGCAGGAUAUACAUGAGGAUCACCCAUGUAAAAGAAAGAAAAGGGAAAGAAAAGUAGAAGGGCAAAGAA [Satre-merenamun Tausret] | 29.6 nM | 30.5 nM |
| AAGAAUGUAGGAUAUACAAGGAAGAAAGAAAAGAAAAGAAAACAUGAGGAUCACCCAUGUAGAAGGACAUAGAA [EteRNA is fun!] | 23.6 nM | 18.2 nM |
| AAGACUACAGGAUAUACAUGAGGAUCACCCAUGUAACUGACAAGCAGAGUACGGAGAAGUAGAAGGGUAGUCAA [Ruby 33] | 20.3 nM | 30.1 nM |
| AAGAUGUCAGGAUAUGCUGCUCGUCACGAAAGUGAUGAGUAGCAGAAGGGACAUGAGGAUCACCCAUGUAAAGA [Exclusion 4.1c (Exclusion4-cac2 - mutated U at 5)] | 112 nM | 140 nM |
| AAGGGACAUGAGGAUCACCCAUGUCAGGAUAUGAUGCGAAUAAAGAAAGAAGAAAGCAUCAGAAGGGACAAAAA [58%, Disencluded 3, 3] | 33.7 nM | 57.6 nM |
| AAGGUUGGAGGAUAUACAUAGAUACAGAUACAUGUAGACGUACAUGAGGAUCACCCAUGUAGAAGGCCAAUAUA [Mat - Same state - Mayanna Mod - D146] | 137 nM | 88.6 nM |
| AAGUAGCUAGGAUAUACAUAGAUACAGAUUCAUGUAGAACUACAUGAGGAUCACCCAUGUAGAAGGAGCUAAUA [AJ 35] | 31.4 nM | 60.3 nM |
| AAGUUGGUAGGAUAUACGUGCAAUUGGUGUGUCCGGAAAAAACAUGAGGAUCACCCAUGUAGAAGGACCAAAAA [Quonmabi] | 47.5 nM | 36.3 nM |
| AAUAAACAUGAGGAUCACCCAUGUGAGGAUAUACAGAUUAUAAGAAAAAAAAAAAAAAGUAGAAGGCACAUAUA [Default title] | 17.6 nM | 45.9 nM |
| AAUAAGUCAGGAUAUGCGAAUAGAAGAUAAGAUACCCAAAAGCAGAAGGGACAUGAGGAUCACCCAUGUAAAUA [JR_Exc004_Sub010] | 31.1 nM | 25.6 nM |
| AAUAGUGAAGGAUAUACAGGAGAAGAAAGAUAAAAGAAAGAACAUGAGGAUCACCCAUGUAGAAGGUCAGAAGU [JR_Exc002_Sub1229] | 27.1 nM | 19.9 nM |
| AAUAUGGGAGGAUAUGCAUAGAUAAAGAAACAUGUUAAAACACAUGAGGAUCACCCAUGUAGAAGGCCCAUAUA [AJ 10] | 103 nM | 335 nM |
| AAUGGUGGAGGAUAUACAUGAGGAUCACCCAUGUAAAUCACACAUGUGGUCAAAGCAUGUAGAAGGCCACUAAA [Ex 3May 52] | 86 nM | 84.9 nM |
| AAUUAGUGAGGAUAUACGGGAGGGAGGGAGGGAGGGAGGGAGUAGAAGGCACAUGAGGAUCACCCAUGUAAUUA [The West [Loop] is Red] | 20.8 nM | 49.9 nM |

| Sequence | apparent KD of MS2 coat protein (MS2 coat protein [1]) | apparent KD of MS2 coat protein (MS2 coat protein [2]) |
| --- | --- | --- |
| ACAAGAUCAGGAUAUACAUGAGGAUCACCCAUGUAAAUCAAAAAGGGACUUACUUAAUGUAGAAGGGAUCAUGU [EX3 279: Random 15] | 28.6 nM | 106 nM |
| ACAGCUGAAGGAUAUACUUGGGAAAAAAAAAAAAAAAAAAAACAUGAGGAUCACCCAUGUAGAAGGUCAGCUGA [Brourd - Exclusion 2 - Sub 1] | 82.2 nM | 43.5 nM |
| ACUAAUGAAGGAUAUACAAACAACAAACACACAACACACACACAUGAGGAUCACCCAUGUAGAAGGUCAAACAU [JR_Exc002_Sub1203] | 15.8 nM | 15.6 nM |
| AGAAAACAUGAGGAUCACCCAUGUCAGGAUAUGUAAAAGAAAAGAAAAGAAAGAAGAAACAGAAGGGACAAGAA [Seth-Peribsen] | 56.9 nM | 53.7 nM |
| AGAAAACAUGAGGAUCACCCAUGUGAGGAUAUGAAAAAGAAAAGAAAAGAAAGAAGAAUCAGAAGGCACAAGAA [Weneg] | 28.6 nM | 29.8 nM |
| AGAAAACGAGGAUAUGCAAGGGAAGAAAGAAGAGAGAAAAAACAUGAGGAUCACCCAUGUAGAAGGUGUAAAAA [JR_Exc002_Sub1714] | 57.5 nM | 37.1 nM |
| AGAAAGCUAGGAUAUACCUGGAGGGUUCUAAAUGAAAUAAAACAUGAGGAUCACCCAUGUAGAAGGAGCCCGAA [Sobire] | 18.3 nM | 16.6 nM |
| AGAAAGUCAGGAUAUCAGAAACUAGUCGAAACGACUAGAAAUGAGAAGGGACAUGAGGAUCACCCAUGUAAGAA [Ex4 sub 2] | 46.3 nM | 43.1 nM |
| AGAAAGUGAGGAUAUACAUGAGGAUCACCCAUGUAGAACGAGAGUUAUAAAAAUGGAAGUAGAAGGCGCAAAAG [water's exclusion 3 2nd] | 28.6 nM | 34.8 nM |
| AGAAUACAUGAGGAUCACCCAUGUGAGGAUAUGCAGAUAAAAAUAAAAUAAAAUAAAUGCAGAAGGCACGAAAG [EX 1 May 21] | 37.1 nM | 86.1 nM |
| AGCAAGUAAGGAUAUGCGAAGUCAGGACACACACUGACGAAGCAGAAGGUACAUGAGGAUCACCCAUGUAAGCA [JR_Exclusion-4 65% 3] | 24.6 nM | 18.7 nM |
| AGCAUGUGAGGAUAUGCGGACUCCAAUAAAUCUGGAGUCCAGUAGAAGGCACAUGAGGAUCACCCAUGUGAUAA [Soenaesma] | 102 nM | 117 nM |
| AGCUAGGUAGGAUAUACGUAAAUGUCGAAAGACGUAUUGGGACAUGAGGAUCACCCAUGUAGAAGGAUCUAGCA [it's a mod mod mod world 3] | 38.8 nM | 178 nM |
| AGCUAGUCAGGAUAUACAAAAUGAUUGCGAAAGCAAUCAACACAUGAGGAUCACCCAUGUAGAAGGGACUAGCA [Mat - Exclusion 2 - JL-Eli mod - D43] | 18.5 nM | 21.1 nM |
| AGCUAGUCAGGAUAUACGAAAAUGUACGAAGCUGAGAAGGGACAUGAGGAUCACCCAUGUAGAAGGGACUAGCA [Diamond 35] | 39.2 nM | 52.5 nM |
| AGCUAGUCAGGAUAUACGAACAUGUCAAAAGACGUAAGGGAACAUGAGGAUCACCCAUGUAGAAGGGACUCGCA [Diamond 51] | 61.3 nM | 98.5 nM |
| AGCUAGUCAGGAUAUACGAACAUGUCAAAAGACGUGAAAAAACAUGAGGAUCACCCAUGUAGAAGGGACUAGCA [Mat - Exclusion 2 - JL mod - D11] | 18.8 nM | 14.6 nM |
| AGGAAACAUGAGGAUCACCCAUGUAAGGAUAUGAACGAAAAUAAAUAAAAAUAAAAGUUCAGAAGGUACAAAAA [66%, Wbt, 6] | 29.8 nM | 52.7 nM |
| AGGAAACAUGAGGAUCACCCAUGUGAGGAUAUAUGAAAGAAAAGAAAAGAAAGAAGAAGUAGAAGGCACAAGAA [Djer] | 27.2 nM | 23.2 nM |
| AGGAAGUGAGGAUAUGCUGCUCGUCACUUGCGUGAUGAGUAGCAGAAGGCACAUGAGGAUCACCCAUGUAAAAA [Mat - Exaclusion 4 - Eli mod - D21] | 46.7 nM | 48.9 nM |
